Test results from article PMC13403136.

B1: AsCas12a ΨDNA + RNA target (EMSA) (DNA:RNA)
DNA: AGCACCCAGTCCGCCCTGAGTAGATGTGAATCATCTTTAAT
RNA: CUCAGGGCGGACUGGGUGCU
B2: AsCas12a ΨDNA + RNA target (EMSA, FAM ΨDNA) (DNA:RNA)
DNA: AGCACCCAGTCCGCCCTGAGTAGATGTGAATCATCTTTAAT
RNA: CUCAGGGCGGACUGGGUGCU

Key:
AsCas12a [1] = target: T1, AsCas12a (UniProt U2UMQ6 1-1307); assay: BLI
AsCas12a [2] = target: T1, AsCas12a; assay: EMSA

Binder | Kd (AsCas12a [1]) [nM] | binding result (AsCas12a [2])
AGCACCCAGTCCGCCCTGAGTAGATGTGAATCATCTTTAAT (ssDNA) [AsCas12a GFP ΨDNA w/ biotin] | 24.5 | 
B1 |  | binds
B2 |  | binds
